B1: Hacin2: α-1,3-fucosyltransferase from Helicobacter acinonychis, GenBank WP_104687422.1, SEQ ID NO: 5 (protein, listed as Helicobacter acinonychis)
chain: MFQPLLDAYTDSAYSDASDHKPPLNIAIANGWGGTKGFEASVLYFILSWRYKIALHENPNKPADLVFSNPLGQARKILSYQNTKRVFYTGENEVPNFNLFDYAIGFDGLDFKERYLRMPLYYASLHDKAQSVNDTTAPYTLKSDSLYALKKPAHCFKEDHPKLCSVVKGESDPFKRGFASFVAGNANAPMRNAFCEALNSVEPVTGGGAVKNTLGYNVTNKSEFLSQYKFNLCFENAQGYGYVTEKIIDAYFSHTIPIYWGSPSVAQDFNPKSFVNVHDFKDFDGAIDYIRYLHTHENAYLDMLYENPLNVIDGKACFYQDLSFKKILDFFKTILENDTIYHNNPFVFDRDLHEPLVSIDNLRADLLLLKDNYDGLKTDYDGLKTDYDGLKTDYDGLKTDYDGLKTDYDGLKTDYDGLKTDYDHLFKSALPLLELSQTTSFKIYHKIYQKTLPLLRMARKLVKK
B2: PglpF: promoter sequence, SEQ ID NO: 28; positive reference of the LacZ assay (nucleic acid, listed as Escherichia coli)
DNA: GCGGCACGCCTTGCAGATTACGGTTTGCCACACTTTTCATCCTTCTCCTGGTGACATAATCCACATCAATCGAAAATGTTAATAAATTTGTTGCGCGAATGATCTAACAAACATGCATCATGTACAATCAGATGGAATAAATGGCGCGATAACGCTCATTTTATGACGAGGCACACACATTTTAAGTTCGATATTTCTCGTTTTTGCTCGTTAACGATAAGTTTACAGCATGCCTACAAGCATCGTGGAGGTCCGTGACTTTCACGCATACAACAAACATTAACCAAGGAGGAAACAGCT
B3: Plac_wt: promoter sequence, SEQ ID NO: 37 (nucleic acid, listed as Escherichia coli)
DNA: TGTGAGTTAGCTCACTCATTAGGCACCCCAGGCTTTACACTTTATGCTTCCGGCTCGTATGTTGTGTGGAATTGTGAGCGGATAACAATTTCACACAGGAAACAGCT
modifications: expressed or natural sequence
B4: Parm1: α-1,3-fucosyltransferase from Parabacteroides merdae, GenBank WP_129943149.1, SEQ ID NO: 2 (protein, listed as Parabacteroides merdae)
chain: MKHETPVLSFIIPIYNVELYLPACLESVLHLPLTNFEIILIDDGSTDNSGRIADKYAENYSHIHVIHQTNAGLSATRNRGVELAEGNYIAFLDSDDWLIGDQIVDIYLQTSQANADMGMGNSLFCYPDGSNGNPFAPIPQNLIGQTIDGKYCFTELMKQNVYPPMVYNYIYRREWLLSHQLRFESVLHEDELWTPIALCYARRIVVTNIDFYGYRQREGSIMTSLRREKRIHDLFFIADRLIRLAENYRFDSDDKNLKSQLYVRSYLLYKIAFSSLAHIHDTRFILPTHHLYQLFAIKNKLTADARNTCINQYKTAKQGLKSYLKWRNSYWIRKLTYEISPETKLILIFNTMWNKPLDIPIQKIPANCIITTDRRFLSTADFVVFHLPDLSNELEEDLDKPEGQKWVAWSLECEENYHFLKDPEFMEVFDYKMSYHQDADIVYPYYRYEYRKELILMPEFSFHEKKDICMMISSPFNQSGRQEYLQELMQYISIDSYGKLFNNCKLEKDSGQDSKMELYRQYKFVIAFENSRANDYVTEKFYDPLLAGAVPIYLGAPNIETFAPGENCSVDIRNFSSPKELAAFLIEACKNEKIYNKFLQWKKEPLKPEFMKKIEAQRVHPFIRLCHLLHLPPPTSRYDGARKKNAHRS

Legend:
[1] = system: LNnT; assay: Deep well assay: HMO profile of LNnT-producing strains expressing α-1,3-fucosyltransferases (HPLC); assay type: cell-based, Escherichia coli
Protocol: Deep Well Assays in the current examples were performed as originally described to Lv et al (Bioprocess Biosyst Eng 20 (2016) 39:1737-1747) and optimized for the purposes of the current invention. More specifically, the strains disclosed in the present example were screened in 96 deep well plates using a 4-day protocol. During the first 24 hours, precultures were grown to high densities (OD600 up to 5) and subsequently transferred to a medium that allowed induction of gene expression and product formation.
More specifically, during day 1, fresh precultures were prepared using a basal minimal medium (BMM) (pH 7.0) supplemented with magnesium sulphate (0.12 g/L), thiamine (0.004 g/L) and glucose (5.5 g/L). Basal Minimal medium had the following composition: NaOH (1 g/L), KOH (2.5 g/L), KHzPO4 (7 g/L), NH&HzPO4 (7 g/L), Citric acid (0.5 g/l), trace mineral solution (5 mL/L). The trace mineral stock solution contained; ZnSO~*7H~O 0.82 g/L, Citric acid 20 g/L, Mn$04*H&O 0.98 g/L, FeSO4*7H&O 3.925 g/L, CuSO4*5H~O 0.2 g/L. The pH of the Basal Minimal Medium was adjusted to 7.0 with 5 N NaOH and autoclaved. The precultures were incubated for 24 hours at 34° C. and 1000 rpm shaking and then further transferred to 0.75 ml of a new BMM (pH 7,5) to start the main culture. The new BMM was supplemented with magnesium sulphate (0.12 g/L), thiamine (0.02 g/L), a bolus of glucose solution (0.1-0.15 g/L) and a bolus of lactose solution (5-20 g/L) Moreover, a 20% stock solution of sucrose (40-45 g/L) or maltodextrin (19-20 g/L) was provided as carbon source, accompanied by the addition of a specific hydrolytic enzyme, sucrose hydrolase or glycoamylase, respectively, so that glucose was released at a rate suitable for carbon-limited growth and similar to that of a typical fed-batch fermentation process. The main cultures were incubated for 72 hours at 28° C. and 1000 rpm shaking. For the analysis of total broth, the 96 well plates were boiled at 100° C., subsequently centrifuged, and finally the supernatants were analysed by HPLC.
Genetically modified cells expressing individual α-1,3-fucosyltransferase enzymes were screened for their ability to produce the fucosylated HMO LNFP-III.
Genetically modified strains expressing the six individual α-1,3-fucosyltransferases (table 5) were generated as described in the “Method” section. The cells were screened in the deep well assay setup as described in the “Method” section.
The molar content of individual HMOs produced by the strains was measured by HPLC.
The results of the LNFP-III producing cells are shown in table 7 as the fraction of the total molar HMO content (in percentage, %) produced by each strain.

[2] = system: β-galactosidase activity; assay: LacZ assay of promoter strength; assay type: cell-based; details: LacZ assay at 30° C.; Plac induced with IPTG
Protocol: Increasing the promoter strength driving the expression of the desired enzyme may be one way of doing this. The strength of a promoter can be assessed using a lacZ enzyme assay where β-galactosidase activity is assayed as described previously (see e.g., Miller J. H. Experiments in molecular genetics, Cold spring Harbor Laboratory Press, NY, 1972). Briefly the cells are diluted in Z-buffer and permeabilized with sodium dodecyl sulfate (0.1%) and chloroform. The LacZ assay is performed at 30° C. Samples are preheated, the assay initiated by addition of 200 μl ortho-nitro-phenyl-β-galactosidase (4 mg/ml) and stopped by addition of 500 μl of 1 M Na2CO3 when the sample had turned slightly yellow. The release of ortho-nitrophenol is subsequently determined as the change in optical density at 420 nm. The specific activities are reported in Miller Units (MU) [A420/(min*ml*A600)]. A regulatory element with an activity above 10,000 MU is considered strong and a regulatory element with an activity below 3,000 MU is considered weak, what is in between has intermediate strength. An example of a strong regulatory element is the PglpF promoter with an activity of approximately 14.000 MU and an example of a weak promoter is Plac which when induced with IPTG has an activity of approximately 2300 MU. […]

[3] = system: β-galactosidase activity; details: LacZ assay, cited from earlier work; for % Activity relative to PglpF: PglpF as positive reference, a range indicates results from multiple assays
[4] = two genomic copies and high copy plasmid (pUC57-Parm1-PglpF)

Row | Molecule | promoter activity in Miller Units [2] | % Activity relative to PglpF [3] | Strength [3] | further results
1 | B1 | – | – | – | LNDFH-III, % of total HMO molar (mM) content produced by each strain ([1]; FT copy nr as in table 7): do not produce any
2 | B2 | approximately 14.000 MU | 100% | high (A regulatory element with an activity above 10,000 MU is considered strong) | –
3 | B3 | approximately 2300 MU | 15-28% | low (a regulatory element with an activity below 3,000 MU is considered weak) | –
4 | B4 | – | – | – | LNnT, % of total HMO molar (mM) content produced by each strain ([1]; FT copy nr as in table 7): 21%; amount of LNnT produced, % of the total HMO content ([1]; two genomic copies): 14%; relative amount of LNFP-III produced, % of the total HMO content ([1]; two genomic copies): 81%; amount of LNnT produced, % of the total HMO content [1, 4]: 5%; relative amount of LNFP-III produced, % of the total HMO content [1, 4]: 86%
